Changes are numbered by the printed parent chain. In names and notes the source's numbering stands.
B1: K306: PfHPPD variant P215L, Q226H, E335P, G336F, A340E (protein)
chain: MADLYENPMGLMGFEFIEFASPTPGTLEPIFEIMGFTKVATHRSKNVHLYRQGEINLILNNEPNSIASYFAAEHGPSVCGMAFRVKDSQKAYNRALELGAQPIHIDTGPMELNLPAIKGIGGAPLYLIDRFGEGSSIYDIDFVYLEGVERNPVGAGLKVIDHLTHNVYRGRMVYWANFYEKLFNFREARYFDIKGEYTGLTSKAMSAPDGMIRILLNEESSKGAGHIEEFLMQFNGEGIQHVAFLTDDLVKTWDALKKIGMRFMTAPPDTYYEMLEGRLPDHGEPVDQLQARGILLDGSSVEGDKRLLLQIFSETLMGPVFFEFIQRKGDDGFGPFNFKELFESIERDQVRRGVLTAD
modifications: HPPD variant - K306
notes: PfHPPD variant P215L, Q226H, E335P, G336F, A340E
B2: PfEvo33: reference PfHPPD mutant E335P, G336W (protein)
chain: B1 chain with L215P, H226Q, F336W, E340A
modifications: HPPD variant - PfEvo33
B3: K361: PfHPPD variant L200M, E335P, G336F, A340E (protein)
chain: B1 chain with L200M, L215P, H226Q
modifications: HPPD variant - K361
notes: PfHPPD variant L200M, E335P, G336F, A340E
B4: PfG336Y: reference PfHPPD mutant G336Y (protein)
chain: B1 chain with L215P, H226Q, P335E, F336Y, E340A
modifications: HPPD variant - Pf336Y
B5: K304: PfHPPD variant L200M, P215L, E335P, G336F, A340E (protein)
chain: B1 chain with L200M, H226Q
modifications: HPPD variant - K304
notes: PfHPPD variant L200M, P215L, E335P, G336F, A340E
B6: PfG336W: reference PfHPPD mutant G336W (protein)
chain: B1 chain with L215P, H226Q, P335E, F336W, E340A
modifications: HPPD variant - Pf336W

How the values were obtained:
[1] = system: Pseudomonas fluorescens HPPD protein; test: OD assay: HPPD activity and pI50 from HPP remaining after derivatisation with DNP; type: biochemical; settings: for Activity DeltaE/24 min μg Protein: HPPD enzyme activity of the clone; for tolerance (pI50) Cmpd. 2: inhibitor Cmpd. 2; for tolerance (pI50) DKN: inhibitor diketonitrile (DKN), negative log of molar concentration; for tolerance (pI50) MST: inhibitor mesotrione (MST); for tolerance (pI50) TBT: inhibitor tembotrione (TBT)
Experimental: (§1) HPPD proteins were produced and purified as described in WO2011/076882. The activity of HPPD proteins in absence or presence of HPPD inhibitors was determined using either the so called OD assay or the HGD assay.
(§2) • a) The OD assay: The HPPD activity was determined colourimetrically by measuring the amount of HPP remaining in the assay mixture at the end of the incubation period after derivatisation of HPP with 2,4-dinitrophenylhydrazine (DNP) to form an amber-brown colored 2,4-dinitrophenylhydrazone under alkaline conditions. The assay was carried out at room temperature in Greiner F-bottom 96 well microplates. The assay mixture contained 50 mM Tris-HCl pH 7.8, 0.5 mM HPP, 10 mM ascorbate, 650 units of catalase and appropriate amounts of purified HPPD enzyme in a total assay volume of 100 μl. The reaction was started by the addition of enzyme. After an incubation time of 24 minutes, the reaction was stopped by the addition of 50 μl of a solution of 0.04% DNP dissolved in 3.8 N HCl. After a further 15-minute incubation period 100 μl of a 5 N KOH solution was added to the reaction mixture and the amount of unconsumed HPP was measured photometrically at 405 nm. Enzyme activity was calculated as the difference in E405 between assays lacking enzyme (negative control) and the enzyme containing assays (ΔE405=E405(negative control)−E405). Enzyme activity (nmol substrate consumed per min) was calculated from a calibration curve generated from HPP. pI50-values (the negative log value of the concentration of inhibitor necessary to inhibit 50% of the enzyme activity in molar concentration were determined from dose-response plots of HPPD activity versus inhibitor concentration tested (5.0×10^−6, 1.0×10^−5, 2.5×10^−5, 4.0×10^−5, 7.0×10^−5, 1.0×10^−4, 2.0×10^−4 and 5.0×10^−4M) using the 4 Parameter Logistic Model or Sigmoidal Dose-Response Model of the ID Business Solutions Ltd. XLfit software suite. The result “>5.6” means that the inhibition at the lowest inhibitor concentration tested was higher than 85% and the pI50-value could therefore not be precisely calculated within in the range of concentration of inhibitor tested. The result “<2.5” means that the inhibition at the highest inhibitor concentration tested was lower than 25% and the pI50-value could therefore not be precisely calculated within in the range of concentration of inhibitor tested. “n.d.” means not determined. • b) The HGD assay: With the HGD assay HPPD activity was measured at room temperature by adding appropriate amounts of HPPD to a solution of 200 mM Tris-HCl pH 7.6, 10 mM ascorbate, 20 μM FeSO4, 650 units of catalase, 8 μg HGA dioxygenase (HGA: homogentisate) and 600 μM HPP in a total volume of 1 ml. Initial reaction rates in the absence or presence of inhibitors were determined from the increase in absorbance at 318 nm due to the formation of maleylacetoacetate (ε318=11,900 M−1 cm-1). pI50-values (the negative log value of the concentration of inhibitor necessary to inhibit 50% of the enzyme activity in molar concentration were determined from dose-response plots of HPPD activity versus inhibitor concentration tested using the 4 Parameter Logistic Model or Sigmoidal Dose-Response Model of the ID Business Solutions Ltd. XLfit software suite. Due to the UV absorption of the HPPD inhibitors tested, inhibitor concentrations >100 μM could not be tested. The result “<4” means that the inhibition at 100 μM inhibitor concentration was lower than 25% and the pI50-value could therefore not be precisely calculated within in the range of concentration of inhibitor tested. “n.d.” means not determined. The HGD assay allowed to continuously follow HPPD-catalyzed HGA formation over time was therefore used to determine the inhibition type of the HPPD inhibitors tested. […] When in the presence of an inhibitor the HPPD activity was inhibited but the inhibition was found not to […] in a time-dependent manner, the inhibitor was called reversible (abbreviation “rev”). […]

[2] = system: Pseudomonas fluorescens HPPD protein; test: HGD assay: HPPD activity coupled to HGA dioxygenase, pI50 and type of inhibition (time-course); type: biochemical; settings: for tolerance (pI50) Cmpd. 2: inhibitor Cmpd. 2; for tolerance (pI50) DKN: inhibitor diketonitrile (DKN); for tolerance (pI50) MST: inhibitor mesotrione (MST); for tolerance (pI50) TBT: inhibitor tembotrione (TBT); for pI50-values of Cmpd. 2: assay not given, follows the time-course analysis (HGD assay)
Experimental: as §1, §2

| Molecule | Activity DeltaE/24 min μg Protein [1] [DeltaE/24 min μg Protein] | tolerance (pI50) Cmpd. 2 [1] | tolerance (pI50) DKN [1] | tolerance (pI50) MST [1] | tolerance (pI50) TBT [1] | mechanism of inhibition by Cmpd. 2, time-course of inhibition [2] | tolerance (pI50) Cmpd. 2 ([2]; HGD assay) | tolerance (pI50) DKN ([2]; HGD assay) | tolerance (pI50) MST ([2]; HGD assay) | tolerance (pI50) TBT ([2]; HGD assay) | pI50-values of Cmpd. 2 [2] | tolerance (pI50) Cmpd. 1 ([2]; inhibitor Cmpd. 1, HGD assay) | tolerance (pI50) Cmpd. 3 ([2]; inhibitor Cmpd. 3, HGD assay) | tolerance (pI50) Cmpd. 4 ([2]; inhibitor Cmpd. 4, HGD assay) | tolerance (pI50) Cmpd. 5 ([2]; inhibitor Cmpd. 5, HGD assay) |
| --- | --- | --- | --- | --- | --- | --- | --- | --- | --- | --- | --- | --- | --- | --- | --- |
| B1 | 0.01 | 5.1 | <2.5 | 3.7 | 4.8 | fully reversible inhibitor | 4.9 |  |  |  |  |  |  |  |  |
| B2 | 0.25 |  | 4.3 | 5.1 |  |  |  | 4.6 | 5.5 | 6.2 |  |  |  |  |  |
| B3 | 0.21 | 5.2 | 3.4 | 4.0 | 5.1 | fully reversible inhibitor |  |  |  |  | 5.3 |  |  |  |  |
| B4 | 0.66 |  | 5.2 | 5.5 |  |  |  | 4.9 | 5.0 |  |  |  |  |  |  |
| B5 | 0.011 | 4.6 |  | 3.2 | 4.2 | fully reversible inhibitor |  |  |  |  | 4.7 |  |  |  |  |
| B6 | 0.40 |  | 5.0 | 5.3 |  |  | 6.8 |  | 5.5 | 6.1 |  | 6.2 | 6.4 | 6.7 | 6.1 |
